Test results: patent US20250136688A1 (Janssen / Centocor, published 2025)

Biological target: T1, ectonucleotide pyrophosphatase/phosphodiesterase family member 3 (ENPP3) (human, UniProt O14638 1-875)
T1 sequence (looked up): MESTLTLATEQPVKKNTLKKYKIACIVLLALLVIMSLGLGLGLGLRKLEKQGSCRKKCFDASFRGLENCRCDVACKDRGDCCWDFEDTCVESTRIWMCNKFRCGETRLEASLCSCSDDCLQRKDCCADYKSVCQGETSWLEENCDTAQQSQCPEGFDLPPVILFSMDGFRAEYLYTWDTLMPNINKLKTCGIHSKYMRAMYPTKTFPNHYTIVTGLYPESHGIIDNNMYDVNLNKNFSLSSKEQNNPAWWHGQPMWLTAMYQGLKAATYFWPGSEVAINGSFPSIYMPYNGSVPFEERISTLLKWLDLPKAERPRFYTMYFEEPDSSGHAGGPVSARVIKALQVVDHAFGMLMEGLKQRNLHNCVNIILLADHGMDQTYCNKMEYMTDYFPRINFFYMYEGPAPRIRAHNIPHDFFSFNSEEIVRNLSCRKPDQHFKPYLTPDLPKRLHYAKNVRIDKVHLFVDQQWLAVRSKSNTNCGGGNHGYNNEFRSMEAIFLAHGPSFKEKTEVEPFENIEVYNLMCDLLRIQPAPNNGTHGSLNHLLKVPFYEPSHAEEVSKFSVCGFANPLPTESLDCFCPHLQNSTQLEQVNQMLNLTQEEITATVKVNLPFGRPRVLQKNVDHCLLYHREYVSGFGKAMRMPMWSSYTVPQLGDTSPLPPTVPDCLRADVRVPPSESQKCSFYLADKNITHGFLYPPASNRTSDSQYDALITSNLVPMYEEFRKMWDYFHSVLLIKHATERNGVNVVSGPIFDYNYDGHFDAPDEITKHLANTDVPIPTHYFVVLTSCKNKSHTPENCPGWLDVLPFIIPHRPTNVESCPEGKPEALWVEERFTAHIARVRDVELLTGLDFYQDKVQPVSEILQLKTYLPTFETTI
Assay: cell-based or functional assay

T-cell activation (Flow Cytometry) EC50, A704: 0.011 nM | T-cell activation (Flow Cytometry) EC50, HepG2: 0.041 nM | T-cell activation (Flow Cytometry) EC50, VMRCRCW: 0.018 nM
B1: NPP3B815 (NPP3B56×CD3B2030-N106A-spFv) (bispecific antibody, human IgG1, kappa, L234A L235A)
chain: EIVLTQSPATLSASPGERVTLSCSASSSVSYMNWYQQKPGCAPRRWIYDSSKLASGVPARFSGSGSGRDYTLTISSLEPEDFAVYYCQQWSRNPPTFGGGTKVEIKGGGSGGSGGCPPCGGSGGQVQLVQSGAEVKKPGSSVKVSCKASGYTFTRSTMHWVKQAPGQGLEWIGYINPSSAYTNYNQKFQGRVTLTADKSTSTAYMELSSLRSEDTAVYYCASPQVHYDYAGFPYWGCGTLVTVSSEPKSSDKTHTCPPCPAPEAAGGPSVFLFPPKPKDTLMISRTPEVTCVVVSVSHEDPEVKFNWYVDGVEVHNAKTKPREEQYNSTYRVVSVLTVLHQDWLNGKEYKCKVSNKALPAPIEKTISKAKGQPREPQVYTLPPSREEMTKNQVSLWCLVKGFYPSDIAVEWESNGQPENNYKTTPPVLDSDGSFFLYSKLTVDKSRWQQGNVFSCSVMHEALHNHYTQKSLSLSPGK
heavy: EVQLVESGGGRVKPGGSLRLSCAASGFTFSDYSMNWVRQAPGKGLEWVSSISSISSYVKYADSVKGRFTMSRDNAKNSLFLQMNSLRDEDMAVYYCARGHYFDYWGQGTLVTVSSASTKGPSVFPLAPSSKSTSGGTAALGCLVKDYFPEPVTVSWNSGALTSGVHTFPAVLQSSGLYSLSSVVTVPSSSLGTQTYICNVNHKPSNTKVDKKVEPKSCDKTHTCPPCPAPEAAGGPSVFLFPPKPKDTLMISRTPEVTCVVVSVSHEDPEVKFNWYVDGVEVHNAKTKPREEQYNSTYRVVSVLTVLHQDWLNGKEYKCKVSNKALPAPIEKTISKAKGQPREPQVYTLPPSREEMTKNQVSLSCAVKGFYPSDIAVEWESNGQPENNYKTTPPVLDSDGSFFLVSKLTVDKSRWQQGNVFSCSVMHEALHNRFTQKSLSLSPGK
light: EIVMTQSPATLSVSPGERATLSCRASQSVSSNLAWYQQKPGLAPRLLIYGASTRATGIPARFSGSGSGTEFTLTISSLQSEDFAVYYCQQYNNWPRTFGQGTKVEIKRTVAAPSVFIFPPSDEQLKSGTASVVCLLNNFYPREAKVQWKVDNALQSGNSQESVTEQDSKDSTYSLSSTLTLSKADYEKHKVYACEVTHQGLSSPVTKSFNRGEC
notes: Heavy Chain 1 = anti-CD3 spFv-Fc (knob); Heavy Chain 2 and Light Chain = anti-ENPP3 Fab arm NPP3B56 (hole); IgG1 with L234A, L235A, D265S; also called ENPP3×CD3
Tumor cell killing (Incucyte) EC50, A704: 0.03 nM | Tumor cell killing (Incucyte) EC50, HepG2: 0.53 nM | Tumor cell killing (Incucyte) EC50, TUHR4TKB: 0.05 nM | Tumor cell killing (Incucyte) EC50, TUHR10TKB: 0.02 nM | Tumor cell killing (Incucyte) EC50, VMRCRCW: 0.13 nM
